The values that follow come from the supplement of paper PMC5998384.

In data set [1] the test system is HeLa Kyoto. Description: solubility change mitosis vs G1/S (difference of NP-40 vs SDS log2 ratios) (log2 ratio difference); higher = more soluble in mitosis.
Data set [2] concerns HeLa Kyoto. Description: solubility in G1/S (NP-40 vs SDS abundance) (log2 ratio); higher = more soluble. Conditions: cell cycle stage: G1/S.
The test system of data set [3] is HeLa Kyoto. In words: melting temperature (median over replicates), in situ; higher = more thermally stable.
Data set [4] concerns HeLa Kyoto. In words: thermal stability score vs G1/S (z-score of summed log2 fold changes over temperatures); higher = more thermally stable than in G1/S.
The mark [5] stands for this setting: cell cycle stage: early G1 (4.5 h after nocodazole release).
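Throughout, for melting temperature (median over replicates), in situ: HeLa Kyoto cells synchronized by double thymidine or nocodazole block, proteins quantified by TMT10plex mass spectrometry, three independent biological replicates.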
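Throughout, for solubility change mitosis vs G1/S (difference of NP-40 vs SDS log2 ratios): synchronized HeLa Kyoto cells (double thymidine block for G1/S, nocodazole release for mitosis), protein amounts in NP-40 versus SDS lysates quantified by mass spectrometry, three biological replicates.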
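Throughout, for solubility in G1/S (NP-40 vs SDS abundance): HeLa Kyoto cells arrested at G1/S by double thymidine block, proteins quantified by TMT10plex mass spectrometry in mild NP-40 versus SDS extracts, three biological replicates.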
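Throughout, for thermal stability score vs G1/S (z-score of summed log2 fold changes over temperatures): synchronized HeLa Kyoto cells, proteins quantified by TMT10plex mass spectrometry, three biological replicates, mitosis taken 0.5 h after nocodazole release, G1/S directly after double thymidine block.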

Regarding “MDRSSKRRQVKPLAASLLEALDYDSSDDSDFKVGDASDSEGSGNGSEDASKDSGEGSCSDSEENILEEELNEDIKVKEEQLKNSAEEEVLSSEKQLIKMEKKEEEENGERPRKKKEKEKEKEKEKEKEKEREKEKEKATVSENVAASAAATTPATSPPAVNTSPSVPTTTTATEEQVSEPKKWNLRRNRPLLDFVSMEELNDMDDYDSEDDNDWRPTVVKRKGRSASQKEGSDGDNEDDEDEGSGSDEDENDEGNDEDHSSPASEGGCKKKKSKVLSRNSADDEELTNDSLTLSQSKSNEDSLILEKSQNWSSQKMDHILICCVCLGDNSEDADEIIQCDNCGITVHEGCYGVDGESDSIMSSASENSTEPWFCDACKCGVSPSCELCPNQDGIFKETDAGRWVHIVCALYVPGVAFGDIDKLRPVTLTEMNYSKYGAKECSFCEDPRFARTGVCISCDAGMCRAYFHVTCAQKEGLLSEAAAEEDIADPFFAYCKQHADRLDRKWKRKNYLALQSYCKMSLQEREKQLSPEAQARINARLQQYRAKAELARSTRPQAWVPREKLPRPLTSSASAIRKLMRKAELMGISTDIFPVDNSDTSSSVDGRRKHKQPALTADFVNYYFERNMRMIQIQENMAEQKNIKDKLENEQEKLHVEYNKLCESLEELQNLNGKLRSEGQGIWALLGRITGQKLNIPAILRAPKERKPSKKEGGTQKTSTLPAVLYSCGICKKNHDQHLLLLCDTCKLHYHLGCLDPPLTRMPRKTKNSYWQCSECDQAGSSDMEADMAMETLPDGTKRSRRQIKEPVKFVPQDVPPEPKKIPIRNTRTRGRKRSFVPEEEKHEERVPRERRQRQSVLQKKPKAEDLRTECATCKGTGDNENLVRCDECRLCYHFGCLDPPLKKSPKQTGYGWICQECDSSSSKEDENEAERKNISQELNMEQKNPKK [PHF14]”, the “solubility change mitosis (log2)” value in the data set on HeLa Kyoto [1] stood at 0.708. In addition, the “solubility in G1/S (log2)” value in the data set on HeLa Kyoto [2] is -1.13. The sequence further showed a melting temperature in the data set with HeLa Kyoto [3] (cell cycle stage: mitosis) of 50.1 °C. Further, the thermal stability score with HeLa Kyoto [4] (setting [5]) was -0.0393; in the data set on HeLa Kyoto [4] (cell cycle stage: mitosis) it was 2.42.
For “MDRVTRYPILGIPQAHRGTGLVLDGDTSYTYHLVCMGPEASGWGQDEPQTWPTDHRAQQGVQRQGVSYSVHAYTGQPSPRGLHSENREDEGWQVYRLGARDAHQGRPTWALRPEDGEDKEMKTYRLDAGDADPRRLCDLERERWAVIQGQAVRKSSTVATLQGTPDHGDPRTPGPPRSTPLEENVVDREQIDFLAARQQFLSLEQANKGAPHSSPARGTPAGTTPGASQAPKAFNKPHLANGHVVPIKPQVKGVVREENKVRAVPTWASVQVVDDPGSLASVESPGTPKETPIEREIRLAQEREADLREQRGLRQATDHQELVEIPTRPLLTKLSLITAPRRERGRPSLYVQRDIVQETQREEDHRREGLHVGRASTPDWVSEGPQPGLRRALSSDSILSPAPDARAADPAPEVRKVNRIPPDAYQPYLSPGTPQLEFSAFGAFGKPSSLSTAEAKAATSPKATMSPRHLSESSGKPLSTKQEASKPPRGCPQANRGVVRWEYFRLRPLRFRAPDEPQQAQVPHVWGWEVAGAPALRLQKSQSSDLLERERESVLRREQEVAEERRNALFPEVFSPTPDENSDQNSRSSSQASGITGSYSVSESPFFSPIHLHSNVAWTVEDPVDSAPPGQRKKEQWYAGINPSDGINSEVLEAIRVTRHKNAMAERWESRIYASEEDD [MISP]”, in that order: 1.38, -2.09, 51.9 °C, -1.21 and -1.86.
“MDSDDEMVEEAVEGHLDDDGLPHGFCTVTYSSTDRFEGNFVHGEKNGRGKFFFFDGSTLEGYYVDDALQGQGVYTYEDGGVLQGTYVDGELNGPAQEYDTDGRLIFKGQYKDNIRHGVCWIYYPDGGSLVGEVNEDGEMTGEKIAYVYPDERTALYGKFIDGEMIEGKLATLMSTEEGRPHFELMPGNSVYHFDKSTSSCISTNALLPDPYESERVYVAESLISSAGEGLFSKVAVGPNTVMSFYNGVRITHQEVDSRDWALNGNTLSLDEETVIDVPEPYNHVSKYCASLGHKANHSFTPNCIYDMFVHPRFGPIKCIRTLRAVEADEELTVAYGYDHSPPGKSGPEAPEWYQVELKAFQATQQK [SETD7]”: the “solubility change mitosis (log2)” value in the data set on HeLa Kyoto [1] was -0.119. In addition, the “solubility in G1/S (log2)” value in the data set with HeLa Kyoto [2] is -0.127. Moreover, the melting temperature in the data set on HeLa Kyoto [3] (cell cycle stage: G1/S) turned out to be 48.7 °C; in the data set with HeLa Kyoto [3] (cell cycle stage: mitosis), 50.5 °C. In addition, the thermal stability score in the data set with HeLa Kyoto [4] (setting [5]) amounted to 1.42; with HeLa Kyoto [4] (cell cycle stage: mitosis) it was 2.54.
Consider “MDSVEKGAATSVSNPRGRPSRGRPPKLQRNSRGGQGRGVEKPPHLAALILARGGSKGIPLKNIKHLAGVPLIGWVLRAALDSGAFQSVWVSTDHDEIENVAKQFGAQVHRRSSEVSKDSSTSLDAIIEFLNYHNEVDIVGNIQATSPCLHPTDLQKVAEMIREEGYDSVFSVVRRHQFRWSEIQKGVREVTEPLNLNPAKRPRRQDWDGELYENGSFYFAKRHLIEMGYLQGGKMAYYEMRAEHSVDIDVDIDWPIAEQRVLRYGYFGKEKLKEIKLLVCNIDGCLTNGHIYVSGDQKEIISYDVKDAIGISLLKKSGIEVRLISERACSKQTLSSLKLDCKMEVSVSDKLAVVDEWRKEMGLCWKEVAYLGNEVSDEECLKRVGLSGAPADACSTAQKAVGYICKCNGGRGAIREFAEHICLLMEKVNNSCQK [CMAS]”, for which, in the data set with HeLa Kyoto [1], the “solubility change mitosis (log2)” value turned out to be 0.303. Besides, the “solubility in G1/S (log2)” value in the data set with HeLa Kyoto [2] is -0.289. Further, the melting temperature in the data set on HeLa Kyoto [3] (cell cycle stage: G1/S) turned out to be 50.8 °C; in the data set on HeLa Kyoto [3] (cell cycle stage: mitosis), 50 °C. Moreover, the results for the thermal stability score with HeLa Kyoto [4] (setting [5]) and in the data set on HeLa Kyoto [4] (cell cycle stage: mitosis) were -0.251 and -0.391, respectively.
In the case of “MDTESTYSGYSYYSSHSKKSHRQGERTRERHKSPRNKDGRGSEKSVTIQPPTGEPLLGNDSTRTEEVQDDNWGETTTAITGTSEHSISQEDIARISKDMEDSVGLDCKRYLGLTVASFLGLLVFLTPIAFILLPPILWRDELEPCGTICEGLFISMAFKLLILLIGTWALFFRKRRADMPRVFVFRALLLVLIFLFVVSYWLFYGVRILDSRDRNYQGIVQYAVSLVDALLFIHYLAIVLLELRQLQPMFTLQVVRSTDGESRFYSLGHLSIQRAALVVLENYYKDFTIYNPNLLTASKFRAAKHMAGLKVYNVDGPSNNATGQSRAMIAAAARRRDSSHNELYYEEAEHERRVKKRKARLVVAVEEAFIHIQRLQAEEQQKAPGEVMDPREAAQAIFPSMARALQKYLRITRQQNYHSMESILQHLAFCITNGMTPKAFLERYLSAGPTLQYDKDRWLSTQWRLVSDEAVTNGLRDGIVFVLKCLDFSLVVNVKKIPFIILSEEFIDPKSHKFVLRLQSETSV [VANGL1]”, the “solubility change mitosis (log2)” value in the data set on HeLa Kyoto [1] is 0.00763. Also, the “solubility in G1/S (log2)” value with HeLa Kyoto [2] is -0.322. The figures for the melting temperature in the data set with HeLa Kyoto [3] (cell cycle stage: G1/S) and in the data set on HeLa Kyoto [3] (cell cycle stage: mitosis) were 56 °C and 54.7 °C, respectively. Further, the thermal stability score in the data set on HeLa Kyoto [4] (setting [5]) is -1.85; in the data set with HeLa Kyoto [4] (cell cycle stage: mitosis), -3.36.
